Measured values as given in PMC4263767, “IL-28B is a Key Regulator of B- and T-Cell Vaccine Responses against Influenza” (PLoS Pathogens, 2014).
“Also recorded” adds a separate entry of the source.

Tests used:
Format in all cases: cell-based, human
[1] = test system: PBMCs from transplant recipients; details: IL-28B 100 ng/mL, 2 h before 5-day H1N1; 38 transplant recipients; p = 0.004
[2] = test system: PBMCs from transplant recipients; assay: Cytokine release by H1N1-stimulated transplant recipient PBMCs, overnight (luminex)
[3] = test system: CD3+CD4+ T-cells in PBMCs from transplant recipients
[4] = test system: B-cells in PBMCs from healthy volunteers; assay: H1N1-stimulated B-cell proliferation (Cell Trace Violet)
[5] = test system: PBMCs from healthy volunteers; assay: Time course of cytokine release, independently recruited healthy volunteers (S3 Figure); details: IL-28B 100 ng/ml
Description: Two luminex-based cytokine profiling kits were used (Eve Technologies, Calgary, Canada). (i) 17-plex: Fractalkine, IFN-α, IFN-γ, GRO, MCP-3, IL-13, sCD40-L, IL-9, IL-1β, IL-2, IL-4, IL-5, IL-6, IP-10, MCP-1, MIP-1α, and TNF-α. (ii) 41-plex: EGF, Eotaxin, FGF-2, FLT3, Fractalkine, G-CSF, GM-CSF, GRO. IFN-α2, IFN-γ, IL-1α, IL-1β, IL-1ra, IL-2, IL-3, IL-4, IL-5, IL-6, IL-7, IL-8, IL-9, IL-10, IL-12p40, IL-12p70, IL-13, IL-15, IL-17, IP-10, MCP-1, MCP-3, MDC, MIP-1α, MIP-1β, PDGF AA, PDGF AB/BB, RANTES, sCD40L, sIL2ra, TGF-α, TNF-α, TNF-β, and VEGF. Our independent experiment for examining a time course of cytokine induction was a custom-plex based on the 17-plex and still run and analyzed by Eve Technologies.
Supplementary file ppat.1004556.s003.tiff: S3 Figure A cytokine profile with pH1N1 stimulation +/− IL-28B pre-treatment (100 ng/ml) was performed. The time-points were collected within the same experiments. For the first 3 HVs studied, d+5 sample was not collected. Overall, the time-points d+1, d+3, d+7 were available in total 10 HVs and for d+5 in 7 HVs. Wilcoxon matched pairs rank test was used to test for significant difference. (TIFF) Click here for additional data file.

[6] = IL-28B 100 ng/mL, overnight H1N1, p=0.04
[7] = IL-28B 100 ng/mL, overnight H1N1, p=0.39
[8] = IL-28B 100 ng/mL, overnight H1N1, p=1.00
[9] = IL-28B 100 ng/mL, overnight H1N1, transplant PBMCs, median (IQR)

B1: IL-28B: recombinant IL-28B, a member of the interferon (IFN)-λ family (protein)
chain: VPVARLRGALPDARGCHIAQFKSLSPQELQAFKRAKDALEESLLLKDCKCRSRLFPRTWDLRQLQVRERPVALEAELALTLKVLEATADTDPALGDVLDQPLHTLHHILSQLRACIQPQPTAGPRTRGRLHHWLHRLQEAPKKESPGCLEASVTFNLFRLLTRDLNCVASGDLCV
modifications: left off: His tag, end not stated, kept
notes: recombinant IL-28B, a member of the interferon (IFN)-λ family
H1N1-induced IgG production with IL-28B (in words) [1]: significantly decreased | H1N1-stimulated Th1-cytokine expression (IFN-γ, IL6) ([2]; IL-28B 100 ng/mL, 2 h before overnight H1N1, n = 36): significant increase | IFN-α, ratio IL-28B/no IL-28B ([2]; IL-28B 100 ng/mL, overnight H1N1, p=0.001): 2.9 | IFN-γ, ratio IL-28B/no IL-28B [2, 6]: 2.1 | MIP-1α, ratio IL-28B/no IL-28B [2, 6]: 1.8 | sCD40-L, ratio IL-28B/no IL-28B [2, 6]: 1.0 | IL-6, ratio IL-28B/no IL-28B ([2]; IL-28B 100 ng/mL, overnight H1N1, p=0.05): 2.4 | IP-10, ratio IL-28B/no IL-28B ([2]; IL-28B 100 ng/mL, overnight H1N1, p=0.14): 1.0 | MCP-3, ratio IL-28B/no IL-28B ([2]; IL-28B 100 ng/mL, overnight H1N1, p=0.33): 1.2 | Fractalkine, ratio IL-28B/no IL-28B [2, 7]: 5.0 | TNF-α, ratio IL-28B/no IL-28B [2, 7]: 1.9 | IL-1β, ratio IL-28B/no IL-28B ([2]; IL-28B 100 ng/mL, overnight H1N1, p=0.44): 1.0 | MCP-1, ratio IL-28B/no IL-28B ([2]; IL-28B 100 ng/mL, overnight H1N1, p=0.61): 1.0 | IL-2, ratio IL-28B/no IL-28B ([2]; IL-28B 100 ng/mL, overnight H1N1, p=0.86): 1.1 | IL-4, ratio IL-28B/no IL-28B ([2]; IL-28B 100 ng/mL, overnight H1N1, p=0.92): 1.0 | GRO, ratio IL-28B/no IL-28B [2, 8]: 1.0 | IL-5, ratio IL-28B/no IL-28B [2, 8]: 1.0 | IL-9, ratio IL-28B/no IL-28B [2, 8]: 1.0 | IL-13, ratio IL-28B/no IL-28B [2, 8]: 1.0 | Fractalkine [2, 9]: 16.1 (3.2-60.2) pg/mL | GRO [2, 9]: 3.2 (3.2-3.2) pg/mL | IFN-α [2, 9]: 1290.8 (502.4-1969.9) pg/mL | IFN-γ [2, 9]: 48.0 (13.9-133.3) pg/mL | IL-1β [2, 9]: 0.6 (0.6-4.0) pg/mL | IL-2 [2, 9]: 61.5 (6.0-168.9) pg/mL | IL-4 [2, 9]: 0.6 (0.6-1.5) pg/mL | IL-5 [2, 9]: 0.6 (0.6-0.6) pg/mL | IL-6 [2, 9]: 104.0 (15.0-156.6) pg/mL | IL-9 [2, 9]: 0.6 (0.6-0.6) pg/mL | IL-13 [2, 9]: 0.6 (0.6-0.9) pg/mL | IP-10 [2, 9]: 8336.4 (7362.5-9289.1) pg/mL | MCP-1 [2, 9]: 0.5 (0.5-827.4) pg/mL | MCP-3 [2, 9]: 760.9 (398.3-2500.5) pg/mL | MIP-1α [2, 9]: 321.4 (173.7-485.3) pg/mL | TNF-α [2, 9]: 23.2 (0.7-44.8) pg/mL | sCD40-L [2, 9]: 0.6 (0.6-77.7) pg/mL | Th1-cytokines (in words, abstract) ([2]; in vitro): increased Th1-cytokines (e.g. IFN-γ) | fold reduction in IL-4 production by CD3+CD4+ T-cells ([3]; IL-28B 100 ng/mL, 2 h before overnight H1N1, transplant recipients n = 47): > 2 -fold | sensitivity of IL-4 production to IL-28B by genotype ([3]; minor allele (TG or GG) PBMCs, 45 transplant recipients): particularly pronounced in patients with a minor allele genotype; also recorded: strong sensitivity to IL-28B | reduction in proliferation capacity of memory B-cells ([4]; 5-day H1N1, n = 6): 70% | H1N1-stimulated B-cell proliferation (in words) ([4]; IL-28B 1, 10, 100 ng/mL, 5-day H1N1, n = 6): dose-dependent decrease | reduction of H1N1-stimulated B-cell proliferation ([4]; abstract, in vitro): 70% | IFN-γ (in words) [5]: trend for upregulation | Th1 and Th1-associated cytokines, early time-points (in words) [5]: significantly up-regulated (IFN-α, IL12p40, TNF- α, and IL-6) | Th2 and Th2-associated cytokines, later time-points (in words) [5]: down-regulated
